Test results: patent US20200123547, “NUCLEIC ACID-BASED ASSEMBLY AND USES THEREOF” (Rheinische Friedrich-Wilhelms-Universität Bonn, published 2020)

Legend:
[1] = biological target: T1, cMet (HGFR) ectodomain, cMet-Fc (human, UniProt P08581 P08581:25-932); assay: competition; filter retention vs 32P-trCLN3; ~50 nM cMet; 1x PBS pH 7.4, 2 mM MgCl2, tRNA, BSA, 37 C; settings: tags: Fc domain of human IgG1 fusion, R&D Systems; chain copies: 2; G4, micellar nanoconstruct above CMC 300-350 nM
Experimental: (§1) To determine the affinity, ˜25 fmol of radiolabeled aptamer was incubated with a cMet concentration of ˜50 nM together with varying concentrations (1 μM-25 μM) of unlabeled competitor for 30 min at 37° C. in 25 μL of buffer containing 0.1 mg/ml E.coli tRNA (Roche, Mannheim, Germany), 0.25 mg/ml BSA, 2 mM MgCl₂ in 1× PBS, pH 7.4. The aptamer-protein complexes were captured on a Protran nitrocellulose membrane (GE Healthcare) that was pre-incubated in 0.4 M KOH for 10 minutes, followed by washing with 1× PBS containing 2 mM MgCl₂, pH 7.4. After addition of the aptamer-protein solution, the filter was washed 4 times with lx PBS containing 2 mM MgCl₂ using vacuum filtration. Residual radioactivity due to cMet bound labeled aptamers was quantified using Fujifilm Fla-3000 Phosphorlmager and AIDA software. The curves were fitted with GraphPadPrism 3.02 plotting non-linear regression curve and the IC₅₀ values have been calculated assuming a competition for single binding site.
(§2) To test the influence of lipid tails on aptamer binding, a competitive filter-binding assay was carried out using the methodology above. Varying concentrations of unlabeled 5′-lipid functionalized aptamer 3 and its two-point mutant variant trCLN3.mut-L4 (see Example 2.3) competed with a constant amount of ³²P-radio-labeled native trCLN3 aptamer in binding to cMet.

[2] = biological target: T1, cMet (HGFR) ectodomain, cMet-Fc; assay: filter; almost no binding in filter retention assay; settings: tags: Fc domain of human IgG1 fusion, R&D Systems; chain copies: 2
[3] = biological target: T1, cMet (HGFR) ectodomain, cMet-Fc; assay: competition; no competition with 32P-trCLN3 within tested concentration range; settings: tags: Fc domain of human IgG1 fusion, R&D Systems; chain copies: 2
Experimental: as §1, §2

T1 sequence (P08581 25-932, one chain of several): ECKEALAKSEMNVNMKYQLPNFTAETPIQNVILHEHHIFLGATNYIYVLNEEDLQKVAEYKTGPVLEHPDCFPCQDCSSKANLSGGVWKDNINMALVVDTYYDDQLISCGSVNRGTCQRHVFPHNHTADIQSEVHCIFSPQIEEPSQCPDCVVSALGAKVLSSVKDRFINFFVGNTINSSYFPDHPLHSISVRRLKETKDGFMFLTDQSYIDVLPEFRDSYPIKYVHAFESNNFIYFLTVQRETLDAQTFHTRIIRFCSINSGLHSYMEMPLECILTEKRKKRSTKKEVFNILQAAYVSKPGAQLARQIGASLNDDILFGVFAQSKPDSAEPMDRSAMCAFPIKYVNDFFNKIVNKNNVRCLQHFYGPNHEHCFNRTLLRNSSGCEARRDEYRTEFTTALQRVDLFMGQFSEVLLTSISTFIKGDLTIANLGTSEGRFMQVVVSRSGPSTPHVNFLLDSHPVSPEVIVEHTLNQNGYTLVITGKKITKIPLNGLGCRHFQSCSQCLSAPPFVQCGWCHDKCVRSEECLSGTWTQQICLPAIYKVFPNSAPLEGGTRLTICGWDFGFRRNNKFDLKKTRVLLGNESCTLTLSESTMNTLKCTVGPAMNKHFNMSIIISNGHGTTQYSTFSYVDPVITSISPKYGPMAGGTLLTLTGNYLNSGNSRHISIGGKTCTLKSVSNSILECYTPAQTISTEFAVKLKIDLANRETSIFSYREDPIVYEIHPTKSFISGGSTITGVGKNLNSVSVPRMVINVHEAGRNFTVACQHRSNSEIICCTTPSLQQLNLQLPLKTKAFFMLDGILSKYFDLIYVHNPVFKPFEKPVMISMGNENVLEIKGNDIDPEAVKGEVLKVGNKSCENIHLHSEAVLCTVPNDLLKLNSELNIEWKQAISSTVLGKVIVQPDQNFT

TGGATGGTAGCTCGGTCGGGGTGGGTGGGTTGGCAAGTCT (structured_DNA, four 5-(1-dodecynyl)-2'-deoxyuridine (C12 lipid) residues at 5' end) [trCLN3-L4] was tested, and the IC50 [1] was 43 nM.

TGGATGATAGCTCGGTCGGGGTGGATGGGTTGGCAAGTCT (ssDNA) [trCLN3.mut]: no binding [2].

TGGATGATAGCTCGGTCGGGGTGGATGGGTTGGCAAGTCT (ssDNA, four 5-(1-dodecynyl)-2'-deoxyuridine (C12 lipid) residues at 5' end) [trCLN3.mut-L4]: no binding [3].
